Laboratory results reported in patent publication US20250283871A1, “COMPOSITIONS AND METHODS FOR MODULATING THE INTERACTION BETWEEN SS18-SSX FUSION ONCOPROTEIN AND NUCLEOSOMES” (Dana-Farber Cancer Institute, Inc., priority 2020, published 2025).
Where “and” joins values, the source holds several entries; their conditions need not be identical. Equal values may be shown once. Each block holds one substance with its values, some of them ahead of it.

What was measured:
[1] = biological target: cellular chromatin (endogenous nucleosomes; core histones H2A, H2B, H3, H4) (human) (UniProt P0C0S8); assay: differential salt extraction, immunoblot
[2] = biological target: cellular chromatin (endogenous nucleosomes; core histones H2A, H2B, H3, H4) (human) (UniProt P0C0S8); assay: cell-based or functional assay
[3] = biological target: recombinant H2A K119Ub mononucleosomes (UniProt P04908); assay: AlphaLISA; 95% CI 7.2-48.5
[4] = biological target: TSP1_HUMAN Thrombospondin-1 (human) (UniProt P07996); assay: anti-SMARCA4 (BRG1) IP, mass spectrometry, human fibroblasts
[5] = biological target: mammalian mononucleosome (HEK293T) carrying histone H3 K79me1 (human (HEK-293T cells)) (UniProt P68431); assay: MBP-SSX1 78aa pull-down of pooled HEK293T mononucleosomes, targeted quantitative histone MS; input c3-c5: 0.268, 0.441, 0.301
[6] = biological target: mammalian mononucleosome (HEK293T) carrying histone H3 K79me2 (human (HEK-293T cells)) (UniProt P68431); assay: MBP-SSX1 78aa pull-down of pooled HEK293T mononucleosomes, targeted quantitative histone MS; input c3-c5: 0.498, 0.469, 0.455
[7] = biological target: recombinant H2A K119Ub mononucleosomes (UniProt P04908); assay: AlphaLISA; 95% CI 2.3-9.1
[8] = biological target: recombinant, unmodified mononucleosomes (UniProt P04908); assay: AlphaLISA; 95% CI 9.1-53.3
[9] = biological target: mammalian mononucleosomes (HEK293T) carrying H2A(12to17)K13ac1 (mammalian (HEK293T)) (UniProt P0C0S8); assay: MBP-SSX1 78aa pull-down, targeted histone MS
[10] = biological target: mammalian mononucleosomes (HEK293T) carrying H2A(12to17)K15ac1 (mammalian (HEK293T)) (UniProt P0C0S8); assay: MBP-SSX1 78aa pull-down, targeted histone MS
[11] = biological target: mammalian mononucleosomes (HEK293T) carrying H2A(12to17)ac0 (mammalian (HEK293T)) (UniProt P0C0S8); assay: MBP-SSX1 78aa pull-down, targeted histone MS
[12] = biological target: mammalian mononucleosomes (HEK293T) carrying H2A(4to11)K5ac1 (mammalian (HEK293T)) (UniProt P0C0S8); assay: MBP-SSX1 78aa pull-down, targeted histone MS
[13] = biological target: mammalian mononucleosomes (HEK293T) carrying H2A(4to11)K5ac1K9ac1 (mammalian (HEK293T)) (UniProt P0C0S8); assay: MBP-SSX1 78aa pull-down, targeted histone MS
[14] = biological target: mammalian mononucleosomes (HEK293T) carrying H2A(4to11)K9ac1 (mammalian (HEK293T)) (UniProt P0C0S8); assay: MBP-SSX1 78aa pull-down, targeted histone MS
[15] = biological target: mammalian mononucleosomes (HEK293T) carrying H2A(4to11)ac0 (mammalian (HEK293T)) (UniProt P0C0S8); assay: MBP-SSX1 78aa pull-down, targeted histone MS
[16] = biological target: mammalian mononucleosomes (HEK293T) carrying H2AZ(1to19)K4ac1 (mammalian (HEK293T)) (UniProt P0C0S5); assay: MBP-SSX1 78aa pull-down, targeted histone MS
[17] = biological target: mammalian mononucleosomes (HEK293T) carrying H2AZ(1to19)ac0 (mammalian (HEK293T)) (UniProt P0C0S5); assay: MBP-SSX1 78aa pull-down, targeted histone MS
[18] = biological target: mammalian mononucleosomes (HEK293T) carrying H2B(1to29)K5ac1 (mammalian (HEK293T)) (UniProt P62807); assay: MBP-SSX1 78aa pull-down, targeted histone MS
[19] = biological target: mammalian mononucleosomes (HEK293T) carrying H3K4ac1 (mammalian (HEK293T)) (UniProt P68431); assay: MBP-SSX1 78aa pull-down, targeted histone MS
[20] = biological target: mammalian mononucleosomes (HEK293T) carrying H3K4me1 (mammalian (HEK293T)) (UniProt P68431); assay: MBP-SSX1 78aa pull-down, targeted histone MS
[21] = biological target: mammalian mononucleosomes (HEK293T) carrying H3K4me2 (mammalian (HEK293T)) (UniProt P68431); assay: MBP-SSX1 78aa pull-down, targeted histone MS
[22] = biological target: mammalian mononucleosomes (HEK293T) carrying H3K4me3 (mammalian (HEK293T)) (UniProt P68431); assay: MBP-SSX1 78aa pull-down, targeted histone MS
[23] = biological target: mammalian mononucleosomes (HEK293T) carrying H3K9me1S10ph1K14ac1 (mammalian (HEK293T)) (UniProt P68431); assay: MBP-SSX1 78aa pull-down, targeted histone MS
[24] = biological target: mammalian mononucleosomes (HEK293T) carrying H3K9me2S10ph1K14ac0 (mammalian (HEK293T)) (UniProt P68431); assay: MBP-SSX1 78aa pull-down, targeted histone MS
[25] = biological target: mammalian mononucleosomes (HEK293T) carrying H3K9me2S10ph1K14ac1 (mammalian (HEK293T)) (UniProt P68431); assay: MBP-SSX1 78aa pull-down, targeted histone MS
[26] = biological target: mammalian mononucleosomes (HEK293T) carrying H3K9me3S10ph1K14ac0 (mammalian (HEK293T)) (UniProt P68431); assay: MBP-SSX1 78aa pull-down, targeted histone MS
[27] = biological target: mammalian mononucleosomes (HEK293T) carrying H4(20to23)K20me0 (mammalian (HEK293T)) (UniProt P62805); assay: MBP-SSX1 78aa pull-down, targeted histone MS
[28] = biological target: mammalian mononucleosomes (HEK293T) carrying H4(20to23)K20me1 (mammalian (HEK293T)) (UniProt P62805); assay: MBP-SSX1 78aa pull-down, targeted histone MS
[29] = biological target: mammalian mononucleosomes (HEK293T) carrying H4(20to23)K20me2 (mammalian (HEK293T)) (UniProt P62805); assay: MBP-SSX1 78aa pull-down, targeted histone MS
[30] = biological target: mammalian mononucleosomes (HEK293T) carrying H4(20to23)K20me3 (mammalian (HEK293T)) (UniProt P62805); assay: MBP-SSX1 78aa pull-down, targeted histone MS
[31] = biological target: mammalian mononucleosomes (HEK293T) carrying H4(4to17)K12ac1K16ac1me0 (mammalian (HEK293T)) (UniProt P62805); assay: MBP-SSX1 78aa pull-down, targeted histone MS
[32] = biological target: mammalian mononucleosomes (HEK293T) carrying H4(4to17)K12ac1me0 (mammalian (HEK293T)) (UniProt P62805); assay: MBP-SSX1 78aa pull-down, targeted histone MS
[33] = biological target: mammalian mononucleosomes (HEK293T) carrying H4(4to17)K16ac1me0 (mammalian (HEK293T)) (UniProt P62805); assay: MBP-SSX1 78aa pull-down, targeted histone MS
[34] = biological target: mammalian mononucleosomes (HEK293T) carrying H4(4to17)K5ac1K16ac1me0 (mammalian (HEK293T)) (UniProt P62805); assay: MBP-SSX1 78aa pull-down, targeted histone MS
[35] = biological target: mammalian mononucleosomes (HEK293T) carrying H4(4to17)K5ac1K8ac1K12ac1K16ac1me0 (mammalian (HEK293T)) (UniProt P62805); assay: MBP-SSX1 78aa pull-down, targeted histone MS
[36] = biological target: mammalian mononucleosomes (HEK293T) carrying H4(4to17)K5ac1K8ac1K12ac1me0 (mammalian (HEK293T)) (UniProt P62805); assay: MBP-SSX1 78aa pull-down, targeted histone MS
[37] = biological target: mammalian mononucleosomes (HEK293T) carrying H4(4to17)K5ac1K8ac1K16ac1me0 (mammalian (HEK293T)) (UniProt P62805); assay: MBP-SSX1 78aa pull-down, targeted histone MS
[38] = biological target: mammalian mononucleosomes (HEK293T) carrying H4(4to17)K5ac1K8ac1me0 (mammalian (HEK293T)) (UniProt P62805); assay: MBP-SSX1 78aa pull-down, targeted histone MS
[39] = biological target: mammalian mononucleosomes (HEK293T) carrying H4(4to17)K5ac1me0 (mammalian (HEK293T)) (UniProt P62805); assay: MBP-SSX1 78aa pull-down, targeted histone MS
[40] = biological target: mammalian mononucleosomes (HEK293T) carrying H4(4to17)K8ac1K12ac1K16ac1me0 (mammalian (HEK293T)) (UniProt P62805); assay: MBP-SSX1 78aa pull-down, targeted histone MS
[41] = biological target: mammalian mononucleosomes (HEK293T) carrying H4(4to17)K8ac1K12ac1me0 (mammalian (HEK293T)) (UniProt P62805); assay: MBP-SSX1 78aa pull-down, targeted histone MS
[42] = biological target: mammalian mononucleosomes (HEK293T) carrying H4(4to17)ac0me0 (mammalian (HEK293T)) (UniProt P62805); assay: MBP-SSX1 78aa pull-down, targeted histone MS
[43] = biological target: KCNMA1 (tr|A0A1W2PP06|A0A1W2PP06_HUMAN) (human) (UniProt Q12791); assay: HA affinity purification from HEK-293T nuclear extract, mass spectrometry peptide counts
[44] = biological target: LPGAT1 (sp|Q92604|LGAT1_HUMAN) (human) (UniProt Q92604); assay: as above
[45] = biological target: LZIC (sp|Q8WZA0|LZIC_HUMAN) (human) (UniProt Q8WZA0); assay: as above

- EC50 [7]: 4.6 nM
- EC50 [8]: 22.1 nM
Substance: GST-SSX1 (78aa) (from UniProt Q16384 111-188)

- log2norm (Light/Heavy) intensity ratio [9]: 0.032 log2 and -0.047 log2
- log2norm (Light/Heavy) intensity ratio [10]: 0.042 log2 and -0.086 log2
- log2norm (Light/Heavy) intensity ratio [11]: 0.201 log2 and -0.12 log2
- log2norm (Light/Heavy) intensity ratio [12]: 0.569 log2 and 0.624 log2
- log2norm (Light/Heavy) intensity ratio [13]: -0.031 log2 and -0.049 log2
- log2norm (Light/Heavy) intensity ratio [14]: -0.254 log2 and -0.375 log2
- log2norm (Light/Heavy) intensity ratio [15]: -0.026 log2 and 0.061 log2
- log2norm (Light/Heavy) intensity ratio [16]: -0.217 log2 and 0.048 log2
- log2norm (Light/Heavy) intensity ratio [17]: -0.784 log2 and -0.697 log2
- log2norm (Light/Heavy) intensity ratio [18]: 0.273 log2 and 0.323 log2
- log2norm (Light/Heavy) intensity ratio [19]: 0.263 log2 and 0.32 log2
- log2norm (Light/Heavy) intensity ratio [20]: 0.74 log2 and 0.353 log2
- log2norm (Light/Heavy) intensity ratio [21]: 0.778 log2 and 0.532 log2
- log2norm (Light/Heavy) intensity ratio [22]: 0.766 log2 and 0.505 log2
- log2norm (Light/Heavy) intensity ratio [23]: -2.67 log2 and -2.51 log2
- log2norm (Light/Heavy) intensity ratio [24]: -0.683 log2 and -1.09 log2
- log2norm (Light/Heavy) intensity ratio [25]: -0.87 log2 and -1.01 log2
- log2norm (Light/Heavy) intensity ratio [26]: -0.566 log2 and -1.03 log2
- log2norm (Light/Heavy) intensity ratio [27]: 0.017 log2 and 0.092 log2
- log2norm (Light/Heavy) intensity ratio [28]: -0.427 log2 and -0.443 log2
- log2norm (Light/Heavy) intensity ratio [29]: -0.414 log2 and -0.391 log2
- log2norm (Light/Heavy) intensity ratio [30]: -0.109 log2 and 0.055 log2
- log2norm (Light/Heavy) intensity ratio [31]: 0.204 log2 and 0.304 log2
- log2norm (Light/Heavy) intensity ratio [32]: -0.207 log2 and -0.275 log2
- log2norm (Light/Heavy) intensity ratio [33]: -0.391 log2 and -0.337 log2
- log2norm (Light/Heavy) intensity ratio [34]: 0.226 log2 and 0.367 log2
- log2norm (Light/Heavy) intensity ratio [35]: 0.276 log2 and 0.245 log2
- log2norm (Light/Heavy) intensity ratio [36]: -0.223 log2 and -0.27 log2
- log2norm (Light/Heavy) intensity ratio [37]: 0.474 log2 and 0.311 log2
- log2norm (Light/Heavy) intensity ratio [38]: 0.107 log2 and 0.094 log2
- log2norm (Light/Heavy) intensity ratio [39]: -0.053 log2 and 0.075 log2
- log2norm (Light/Heavy) intensity ratio [40]: 0.677 log2 and 0.625 log2
- log2norm (Light/Heavy) intensity ratio [41]: -0.198 log2 and -0.093 log2
- log2norm (Light/Heavy) intensity ratio [42]: -0.613 log2 and -0.573 log2
Substance: MBP-SSX1 78aa protein (from UniProt Q16384 111-188)

- NaCl concentration of elution from chromatin [1]: 0.3 to 0.5 M
Substance: wild-type SS18-bound BAF complexes (HA-SS18 WT purification) (from UniProt Q15532 1-387)

- Total peptides [43]: 1 peptides
- Unique peptides [43]: 1 peptides
- Total peptides [44]: 1 peptides
- Unique peptides [44]: 1 peptides
- Total peptides [45]: 1 peptides
- Unique peptides [45]: 1 peptides
Substance: HA-SS18 WT (from UniProt Q15532 1-387)

More lines, now with the values behind:

Substance: SS18-SSX-bound BAF complexes (HA-SS18-SSX1 purification)
- NaCl concentration of elution from chromatin [1]: > 1 M

Substance: GFP-SS18 WT (from UniProt Q15532 2-418)
- FRAP recovery half-time [2]: 10.1 s

Substance: GST-SSXdel7aa (acidic C-term DPEEDDE-->AAAAAAA) (from UniProt Q16384 111-181)
- EC50 [3]: 18.7 nM

Substance: GFP-SS18-SSX1
- FRAP recovery half-time [2]: 33.9 s

Substance: SMCA4_HUMAN Transcription activator BRG1 (from UniProt P51532 1-1647)
- NSAF [4]: 0.000217

Substance: MBP-SSX1 78aa (from UniProt Q16384 111-188)
- log2norm (Light/Heavy) intensity ratio normalized to histone norm peptide [5]: 0.954 log2 and 0.54 log2
- log2norm (Light/Heavy) intensity ratio normalized to histone norm peptide [6]: 0.826 log2 and 0.557 log2
